Molecular target: T1, human MUC1, tumor-associated form (tMUC), on tumor cells and tumor tissue (human, UniProt P15941 24-1255, tumor-associated (aberrant) glycosylation, not specified further)
T1 construct: also called tMUC1; tumor-associated glycosylated MUC1
Assay: fluorescence microscopy of CAR T cells co-incubated with HPAFII cells

T1 sequence (P15941 other isoform, or with tags, fused parts or gaps limits assumed): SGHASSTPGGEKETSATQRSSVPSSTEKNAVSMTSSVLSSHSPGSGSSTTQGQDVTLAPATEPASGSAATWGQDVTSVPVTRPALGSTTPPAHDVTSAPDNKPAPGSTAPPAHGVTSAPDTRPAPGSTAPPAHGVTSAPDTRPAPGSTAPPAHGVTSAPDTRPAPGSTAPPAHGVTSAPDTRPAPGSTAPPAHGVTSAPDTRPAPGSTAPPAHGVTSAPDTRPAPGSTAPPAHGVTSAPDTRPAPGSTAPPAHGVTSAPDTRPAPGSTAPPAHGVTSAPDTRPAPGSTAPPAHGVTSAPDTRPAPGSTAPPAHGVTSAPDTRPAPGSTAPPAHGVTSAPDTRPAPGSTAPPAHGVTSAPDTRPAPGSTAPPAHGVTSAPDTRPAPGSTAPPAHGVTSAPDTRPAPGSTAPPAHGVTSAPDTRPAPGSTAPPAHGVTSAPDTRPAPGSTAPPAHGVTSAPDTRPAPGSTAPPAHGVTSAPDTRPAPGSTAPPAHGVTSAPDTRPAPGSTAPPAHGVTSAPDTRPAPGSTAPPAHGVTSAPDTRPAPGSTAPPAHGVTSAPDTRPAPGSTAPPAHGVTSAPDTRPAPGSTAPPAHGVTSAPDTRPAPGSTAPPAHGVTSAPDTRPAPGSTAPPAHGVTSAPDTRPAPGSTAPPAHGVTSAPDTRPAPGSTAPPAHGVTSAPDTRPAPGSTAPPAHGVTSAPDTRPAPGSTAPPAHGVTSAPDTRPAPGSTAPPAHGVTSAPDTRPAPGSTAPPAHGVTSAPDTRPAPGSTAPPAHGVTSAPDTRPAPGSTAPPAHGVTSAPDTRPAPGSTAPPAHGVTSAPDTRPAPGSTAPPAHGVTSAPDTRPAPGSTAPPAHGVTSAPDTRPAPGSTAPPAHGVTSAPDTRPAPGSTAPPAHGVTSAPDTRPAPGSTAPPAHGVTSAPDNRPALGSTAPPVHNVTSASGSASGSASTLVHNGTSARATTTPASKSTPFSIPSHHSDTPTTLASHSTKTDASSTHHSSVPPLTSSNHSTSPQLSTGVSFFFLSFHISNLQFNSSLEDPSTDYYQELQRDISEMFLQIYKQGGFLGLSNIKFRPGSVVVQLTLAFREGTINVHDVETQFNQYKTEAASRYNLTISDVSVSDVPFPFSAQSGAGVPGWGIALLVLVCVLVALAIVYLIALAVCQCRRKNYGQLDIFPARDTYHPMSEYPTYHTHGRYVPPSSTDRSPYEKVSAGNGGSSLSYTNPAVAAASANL

B1: TAB-28z-mKATE chimeric antigen receptor (2nd generation), on T cells (receptor)
chain: EVQLQQSGGERATPGASVKMSCKTSGYTFTNYWMHWVKQRPGQGLEWIGYINPSSGYTQYNQKFKDKATLTADKSSSTAYIQLSSLTSEDSAVYYCSTYYGDYLFPYWGQGTLVTVSAGGGGSGGGGSGGGGSDVLMTQTPLSLPVSLGDQASISCRSSQDIVYGNGNTYLEWYLQKPGQSPKLLIYKVSNRFSGVPDRFSGSGSGTDFTLKISRVEAEDLGVYYCFQGSHVPYTFGGGTKLEIKRAAAIEVEQKLISEEDLLDNEKSNGTIIHVKGKHLCPSPLFPGPSKPFWVLVVVGGVLACYSLLVTVAFIIFWVRSKRSRLLHSDYMNMTPRRPGPTRKHYQPYAPPRDFAAYRSRVKFSRSADAPAYQQGQNQLYNELNLGRREEYDVLDKRRGRDPEMGGKPRRKNPQEGLYNELQKDKMAEAYSEIGMKGERRRGKGHDGLYQGLSTATKDTYDALHMQALPPRARGAAAGAGGAGRMVSELIKENMHMKLYMEGTVNNHHFKCTSEGEGKPYEGTQTMRIKAVEGGPLPFAFDILATSFMYGSKTFINHTQGIPDFFKQSFPEGFTWERVTTYEDGGVLTATQDTSLQDGCLIYNVKIRGVNFPSNGPVMQKKTLGWEASTETLYPADGGLEGRADMALKLVGGGHLICNLKTTYRSKKPAKNLKMPGVYYVDRRLERIKEADKETYVEQHEVAVARYCDLPSKLGHR
notes: Expressed on the surface of T cells or Jurkat cells; also called CAR-mKATE; CAR-mKate fusion protein
- binding result: binds

Source: patent publication US12605469B2, “Tumor specific antibody conjugates and uses therefor” (The University of North Carolina at Charlotte, priority 2019, dated 2026)
